Measured values from the supplement of paper PMC12667976.

B1: library; numbered along this chain (parent)
chain: MATDAALRRLLRLHRTEIAVAVDSAFPLLHALADHDVVPEDKFQETLHLKEKEGCPQAFHALLSWLLTQDSTAILDFWRVLFKDYNLERYGRLQPILDSFPKDVDLSQPRKGRKPPAVPKALVPPPRLPTKRKASEEARAAAPAALTPRGTASPGSQLKAKPPKKPESSAEQQRLPLGNGIQTMSASVQRAVAMSSGDVPGARGAVEGILIQQVFESGGSKKCIQVGGEFYTPSKFEDSGSGKNKARSSSGPKPLVRAKGAQGAAPGGGEARLGQQGSVPAPLALPSDPQLHQKNEDECAVCRDGGELICCDGCPRAFHLACLSPPLREIPSGTWRCSSCLQATVQEVQPRAEEPRPQEPPVETPLPPGLRSAGEEVRGPPGEPLAGMDTTLVYKHLPAPPSAAPLPGLDSSALHPLLCVGPEGQQNLAPGARCGVCGDGTDVLRCTHCAAAFHWRCHFPAGTSRPGTGLRCRSCSGDVTPAPVEGVLAPSPARLAPGPAKDDTASHEPALHRDDLESLLSEHTFDGILQWAIQSMARPAAPFPS

Variants of: B1
Assay: AIRE transcriptional activation functional score (insulin promoter-GFP; nonsense median 0, synonymous median 1) (normalised score); higher = higher AIRE activity (more reporter activation)
Details: with insulin promoter-GFP reporter in HEK293
How it was run: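 Functional scores come from comparing select with non-select enrichment of each variant and subtracting wild type. Codon-optimized AIRE NNN-codon libraries across three regions were integrated via Bxb1 recombinase into HEK293 landing-pad cells with an insulin core promoter-GFP reporter, and integrants sorted at day 7 were expanded 7 days before top 10% GFP and unselected populations were tile-sequenced. Variants needed 10 counts per million in non-select, and values were rescaled to nonsense median 0 and synonymous median 1 before averaging over biological replicates.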

AIRE transcriptional activation functional score of substitutions, site by site:
S545: Y 1.35 | C 1.3 | A -0.21 | F 1.04 | T 0.998 | P 0.59
I533: Q 0.144 | Y 0.199 | L 0.274 | S 0.404 | G 0.261 | V 0.411 | H 0.217 | C 0.256 | R 0.266 | T 0.516 | E -0.386 | D 0.569 | N -0.116 | W 0.193 | M 1.13
P544: C 0.924 | Y 1.65 | S 0.867 | V 0.842 | A 1.28 | T 0.985 | R 0.52 | H 0.559 | I 1.16 | L 1.19 | N -0.709 | G 1.38 | F 0.586 | Q 0.746
L529: I 1.17 | A -0.089 | R 0.121 | P -0.359 | G -0.203 | S -0.21 | E -0.369 | N -0.625 | Y 0.598 | D -0.829 | T 0.261 | F 0.323 | W 1.39 | Q -0.832 | H -0.499 | C 0.595 | V 0.905 | M -0.503
A540: F 0.417 | G 1 | I 0.978 | N 1.02 | P 1.07 | K 0.195 | Y 0.912 | R 0.119 | D 0.625 | S 0.988 | C 1.37 | E 0.617 | M 0.694 | L 0.964 | V 1.11 | Q 0.739 | W 0.41 | T 0.867 | H 0.844
A532: F -0.19 | I 0.447 | D 0.194 | C -0.268 | L 1.01 | Q 0.186 | R 0.215 | P 0.00951 | K -0.0221 | S 0.141 | V 0.836 | T 1.21 | Y 0.432 | G 0.0621 | N 0.0785
A541: E 0.858 | R 0.198 | V 1.1 | C 1.43 | I 1.3 | H 0.976 | W 0.259 | K 0.252 | N 0.974 | M 0.557 | T 0.842 | P 0.791 | S 0.717 | F 0.75 | L 0.957 | D 0.469 | Y 0.977 | Q 1.05 | G 0.847
M536: P 0.215 | G 0.186 | V 0.514 | D 0.726 | T 1.15 | H 1 | E 0.588 | L 1.04 | F 1.95 | A 0.0376 | I 1.19 | C 1.08 | R -0.0464 | W 0.508 | Y -0.0719 | N 0.506 | S 0.272 | K -0.0329
Q534: H 0.807 | I -0.04 | T 1.76 | S 0.372 | N 1.8 | Y 0.193 | M 0.598 | A 1.7 | F 0.205 | L 0.314 | C 1.08 | K 0.887 | D -0.117 | G 1.08 | P 0.0913 | R 0.171 | V 0.135
F543: E 0.561 | T 0.669 | C 0.138 | V 0.18 | I 0.17 | S 0.493 | M 0.745 | N 0.535 | G 0.595 | Q 0.317 | L 0.729 | A 0.367 | P 1.13 | R 0.296 | D 0.845 | Y 0.833 | W 1.23
S535: I 0.212 | C 0.706 | M -0.462 | T 0.745 | R 0.12 | L 0.146 | F 0.394 | Y -1.02 | A 1.1 | W 0.301 | P 0.472 | V 0.00974 | Q -0.0138 | H 0.704 | K -0.212 | N 0.164 | G 1.74
A537: I 0.231 | G 0.792 | H 0.783 | Q 0.813 | C 0.622 | K 0.346 | R -0.0391 | T 1.41 | M 0.458 | V 0.891 | L 0.0269 | P 0.545 | E 0.915 | S 1.1
P542: C 1.05 | K 0.249 | Q 0.942 | G 0.957 | T 0.963 | N -0.142 | R 0.209 | D 0.633 | W 0.476 | L 1.07 | E 0.426 | V 1.16 | S 1.07 | M 1.3 | I 1.09 | F 0.923 | A 1.19 | H 0.651 | Y 1.25
W531: P -0.179 | S 0.218 | A -0.104 | G 0.0105 | Q 0.225 | N -0.329 | M 0.434 | F 0.12 | E -0.39 | L 0.702 | R -0.126 | I 0.285 | K 0.178 | D 0.357 | V -0.0485 | C 0.138
P539: H 0.373 | D 0.00758 | T 0.931 | R 0.158 | Y -0.367 | L -0.0017 | C 0.233 | W 0.719 | V 0.434 | G 1.47 | K 0.00204 | Q 0.339 | S 0.85 | N 0.745 | I 0.0871 | A 0.371 | M 0.297 | F 0.224
Q530: Y 0.438 | T 1.05 | C -0.0453 | A 0.824 | R -0.0677 | S 0.546 | F -0.0468 | V -0.295 | D 0.251 | W -0.0706 | H 1.21 | P 0.385 | L -0.018 | N 1.52 | K 0.392 | E 0.29 | M -0.198 | I 0.183
R538: L 1.52 | K 1.18 | G 0.544 | I 1.65 | S 0.733 | A 0.19 | T 0.72 | W 1.54 | M 1.05 | N -0.187
